Data: patent publication EP3016671B1, “ACTIVELY T[…] PROTEASE-RESISTANT PEPTIDES AS BBB SHUTTLES AND SHUTTLE-CARGO CONSTRUCTS” (Universitat de Barcelona, priority 2013, dated 2015)
Positions of bridges follow the written chain, without caps; N, C: chain ends. Non-standard residues stand in square brackets, D forms with d. Residues, ends and D or L forms follow the SMILES beside them. *: point of attachment. X1 = CCN(CC)c1ccc2c(-c3ccc(S(=O)(=O)*)cc3S(=O)(=O)[O-])c3ccc(=[N+](CC)CC)cc-3oc2c1; Biotin = O=C1N[C@H]2[C@H](CS[C@H]2CCCCC(=O)*)N1; Dopa = N[C@@H](Cc1ccc(O)c(O)c1)C(=O)O

Assays:
[1] = system: bovine brain endothelial cells; assay: Transport across the BBB, in vitro bovine cell assay (co-culture, transwell); conditions: bovine cell model; for Transport (%) (2h) / Papp (x 10^6) cm/s: 37 °C, Ringer-HEPES pH 7.4, 200 µM (Example 21: 1.75 µM), 2 h; for Papp (x 10^6) cm/s: triplicate; for detection of the cargo alone in the acceptor compartments by MALDI-TOF MS: after the 2 h assay, cargo without shuttle
From the text: (§1) The evaluation method chosen to test the compounds of formula (I) and (II) of the invention was a cell-based assay consisting of a co-culture of brain endothelial cells and astrocytes, which allows to evaluate or to predict the transport of compounds through the BBB. The co-culture method used was described by Gaillard and de Boer in 2008 (Gaillard, PJ et al. "2B-Trans technology: targeted drug delivery across the blood-brain barrier" Methods Mol Biol 2008, vol. 437 pp. 161-175) and consists in seeding of rat astrocytes in a side of a polycarbonate filter (transwell) and bovine brain endothelial cells on the other side of the filter. Under these conditions endothelial cells are able to reach the confluence mimicking the BBB. […] Is commonly used model for permeation studies and toxicity of compounds across the BBB.
(§2) The co-culture assay was used to determine the capacity of the constructs cargo-shuttle to cross the BBB. The apparent permeability of the compounds was measured in triplicate at a concentration of 200 µ M for Examples 1, 2, 3, 5, 10, 13, 15, 16, 17 and 19 and at a concentration of 1.75 µM for Example 21. All the assays were performed with transendothelial electrical resistance values equal or higher than 100 Ω · cm^2 and were carried out in the presence of lucifer yellow to assess the integrity of the cell membrane during the test. The permeability tests were performed in Ringer-HEPES buffer at pH 7.4. The compound of interest was dissolved in the buffer to the desired concentration.
(§3) Once the endothelial cells were confluent on the filters (transwells) these were washed with Ringer-HEPES buffer. The acceptor well was filled with 800 µ L of Ringer-HEPES buffer and the donor well with 200 µL of the solution of the compound to be studied. The system was incubated at 37 °C and 5% CO2 for 2 h. After that time the content of the acceptor and donor compartments were analyzed by HPLC-UV, direct ELISA or fluorescence (depending on cargo anchored to the shuttle). […] The apparent permeability was calculated using the following equation: Papp = (dQ/dt) * (1/A) * (1/CO) (cm/s), where (dQ/dt) is the amount of compound present in the compartment acceptor function of time (nmol/s). A is the area of the filter(cm2) and CO is the initial concentration of the compound applied in the donor compartment (nmol/mL).

[2] = as above; conditions: pH 7.4; for Papp at 2 h: bovine
From the text: as §1, §2, §3

| Compound | Transport (%) (2h) [1] | detection of the cargo alone in the acceptor compartments by MALDI-TOF MS [1] | further results |
| --- | --- | --- | --- |
| 5(6)-Carboxyfluorescein-Cys-Asn-Cys-Lys-Ala-Pro-Glu-Thr-Ala-Leu-Cys-Ala-Ala-Ala-Cys-His-NH2 ({5(6)‑carboxyfluorescein}-CNCKAPETALCAAACH-NH2; disulfide 1-11, 3-15) [Example 10] | 3.7±1.8 | – | Papp (x 10^6) cm/s [1]: 3.1±1.5 (x 10^6) cm/s |
| 5(6)-carboxyfluorescein | – | not detected | – |
| CCN(CC)c1ccc2c(-c3ccc(S(=O)(=O)NCC(=O)N[C@H]4CSSC[C@@H]5NC(=O)[C@H](CC(C)C)NC(=O)[C@H](C)NC(=O)[C@H]([C@@H](C)O)NC(=O)[C@H](CCC(=O)O)NC(=O)[C@@H]6CCCN6C(=O)[C@H](C)NC(=O)[C@H](CCCCN)NC(=O)[C@H](CSSC[C@@H](C(=O)N[C@@H](Cc6c[nH]cn6)C(N)=O)NC(=O)[C@H](C)NC(=O)[C@H](C)NC(=O)[C@H](C)NC5=O)NC(=O)[C@H](CC(N)=O)NC4=O)cc3S(=O)(=O)[O-])c3ccc(=[N+](CC)CC)cc-3oc2c1 [Example 13, sulforhodamine b-Gly-Cys-Asn-Cys-Lys-Ala-Pro-Glu-Thr-Ala-Leu-Cys-Ala-Ala-Ala-Cys-His-NH2] (X1-GCNCKAPETALCAAACH-NH2; disulfide 2-12, 4-16) | 2.4±0.4 | – | Papp [2]: 2 ± 0.3 ×10⁻⁶ cm/s |
| CC(C)C[C@@H]1NC(=O)[C@H](C)NC(=O)[C@H]([C@@H](C)O)NC(=O)[C@H](CCC(=O)O)NC(=O)[C@@H]2CCCN2C(=O)[C@H](C)NC(=O)[C@H](CCCCN)NC(=O)[C@@H]2CSSC[C@@H](C(=O)N[C@@H](Cc3c[nH]cn3)C(N)=O)NC(=O)[C@H](C)NC(=O)[C@H](C)NC(=O)[C@H](C)NC(=O)[C@H](CSSC[C@H](NC(=O)[C@@H](N)Cc3ccc(O)c(O)c3)C(=O)N[C@@H](CC(N)=O)C(=O)N2)NC1=O [Example 16, L-Dopa-Cys-Asn-Cys-Lys-Ala-Pro-Glu-Thr-Ala-Leu-Cys-Ala-Ala-Ala-Cys-His-NH2] (H-[Dopa]CNCKAPETALCAAACH-NH2; disulfide 2-12, 4-16) | 3.1±0.3 | – | Papp at 2 h [2]: 2.6 ± 0.3 ×10⁻⁶ cm/s |
| CC(C)C[C@@H]1NC(=O)[C@H](C)NC(=O)[C@H]([C@@H](C)O)NC(=O)[C@H](CCC(=O)O)NC(=O)[C@@H]2CCCN2C(=O)[C@H](C)NC(=O)[C@H](CCCCN)NC(=O)[C@@H](NC(=O)[C@@H](N)Cc2ccc(O)c(O)c2)CSSC[C@@H](C(N)=O)NC1=O [Example 17, L-Dopa-Cys-Lys-Ala-Pro-Glu-Thr-Ala-Leu-Cys-NH2] (H-[Dopa]CKAPETALC-NH2; disulfide 2-10) | 2.9 | – | Papp at 2 h [2]: 2.4 ×10⁻⁶ cm/s |
| N[C@@H](Cc1ccc(O)c(O)c1)C(=O)O [L-dopa] | – | not detected | – |
| O=C(O)CCCC[C@@H]1SC[C@@H]2NC(=O)N[C@@H]21 [biotin] | – | not detected | – |
| CCN(CC)c1ccc2c(-c3ccc(S(=O)(=O)O)cc3S(=O)(=O)[O-])c3ccc(=[N+](CC)CC)cc-3oc2c1 [sulforhodamine b] | – | not detected | – |
| Biotin-CNCKAPETALCAAACH-NH2 (cysteine pairing not given here) [Example 15] | 1.9±0.8 | – | – |
| H-LPFFD-NH2 [H-Leu-Pro-Phe-Phe-Asp-NH2, reference compound] | – | not detected | – |
| Lysozyme-V3-Cys-Asn-Cys-Lys-Ala-Pro-Glu-Thr-Ala-Leu-Cys-Ala-Ala-Ala-Cys-His-NH2 [Example 21] | 0.08±0.03 | – | Papp (x 10^6) cm/s [1]: 0.07±0.03 (x 10^6) cm/s |
